{"source": "paper PMC3467076", "binders": {"B1": {"name": "E0-1-1 (dsDNA)", "DNA 1": "TAATAATGCTTAGTTATAAATTACT", "DNA 2": "AGTAATTTATAACTAAGCATTATTA"}}, "target": "T1, SNI1 (Arabidopsis thaliana, UniProt Q9SWA6 1-432)", "T1 sequence": "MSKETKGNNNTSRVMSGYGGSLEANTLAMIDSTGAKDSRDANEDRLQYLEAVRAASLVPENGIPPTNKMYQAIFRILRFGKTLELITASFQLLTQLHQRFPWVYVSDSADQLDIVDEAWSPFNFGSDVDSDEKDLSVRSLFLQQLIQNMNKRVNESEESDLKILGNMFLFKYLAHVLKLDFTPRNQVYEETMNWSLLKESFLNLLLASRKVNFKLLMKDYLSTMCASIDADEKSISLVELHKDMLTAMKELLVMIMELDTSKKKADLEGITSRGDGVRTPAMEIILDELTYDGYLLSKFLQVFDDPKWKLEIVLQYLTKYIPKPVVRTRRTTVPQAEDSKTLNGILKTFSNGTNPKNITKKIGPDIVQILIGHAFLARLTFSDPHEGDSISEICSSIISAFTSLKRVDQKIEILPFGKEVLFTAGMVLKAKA", "test": "EMSA", "data": [{"binder": "B1", "values": [{"measurement": "binding result", "result": "no binding"}]}]}
